This is an account of results in patent US20130102009A1, “SIRTUIN ACTIVATORS AND ACTIVATION ASSAYS” (priority 2010, published 2013).

Holding throughout (experiment): Steady-state kinetic parameters for SIRT1 substrates (PNC1-GDH-coupled assay)
Common to all, as to assay type: biochemical, human
Holding throughout (conditions): other: 25° C., pH 7.5, [NAD+]o = 2 mM, [SIRT1]o 50-1,000 nM

Substrate in data set [1]: CC(=O)NCCCC[C@H](NC(=O)[C@H](CCCCN)NC(=O)[C@H](Cc1c[nH]cn1)NC(=O)[C@H](CCCNC(=N)N)NC(C)=O)C(=O)N[C@@H](C)C(N)=O
As to the method: (§1) All peptides were prepared by BioPeptide (San Diego, Calif.) and shown to be at least 95% pure by analytical HPLC analysis. Bovine glutamate dehydrogenase (GDH), α-ketoglutarate, NADH and NAD^+ were from Sigma Chemical Company. Full-length, human SIRT1 and the truncated version used for biophysical studies SIRT1(183-664) were prepared as described previously, and shown to have equivalent kinetic properties (Milne et al. (2007) Nature 450, 712-716). The nicotinamidase PNC1 was prepared as described by Denu and colleagues (Smith et al. (2009) Anal Biochem 394, 101-109).
(§2) To determine the interaction of STACs with SIRT1 two kinetic methods were employed. One, which was used for TAMRA-peptide, desTAMRA-peptide, des(biotin,TAMRA)-peptide, and p53-20 mer, used a previously described mass spectroscopic method for detection of peptide reaction products (Milne et al. (2007) Nature 450, 712-716). The other, used with peptides of general structure Ac-Arg-His-Lys-Lys^Ac-X, used a continuous, enzyme-coupled method reported previously (Smith et al. (2009) Anal Biochem 394, 101-109), in which the SRT1 product nicotinamide is first converted into nicotinic acid and ammonia by the action of PNC1, and the ammonia then used by GDH to convert α-ketoglutarate into glutamate. This reaction occurs with oxidation of NADH to NAD^+ which is accompanied by a change in absorbance at 340 nm (Δε340=−6,200 M^−1 cm^−1).
(§3) The kinetic experiments used to characterize activators were run on a Perkin Elmer Lambda 25 spectrophotometer equipped with a water-jacketed, eight-cell changer maintained at 25° C. In a typical kinetic experiment, all components of the reaction solution except SIRT1 were added to a 1 mL cuvette and allowed to reach thermal equilibrium. Final concentrations of the coupling system components were: 1 μM PNC1, 0.23 mM NADH, 3.4 mM α-ketoglutarate, and 20 U/mL bovine GDH. This solution also contained peptide substrate, NAD^.0., and activator, at concentrations indicated in the text. The final DMSO concentration was kept constant at 1%, and the buffer used in these experiments was 50 mM HEPES, 150 mM NaCl, pH 7.5. While the system was reaching thermal equilibrium, the absorbance was monitored to provide an accurate estimate of the background rate, which was subtracted from the reaction rate after the addition of SIRT1.
(§4) The parameters reported in this table were all determined using the PNC1-GDH-coupled assay. Kinetic parameters for the four 20 mers were also estimated using the mass spectroscopy-based assay first described by Milne et al. ((2007) Nature 450, 712-716) and agree with those reported in Table 3.

Substrate in data set [2]: CC(=O)NCCCC[C@H](NC(=O)[C@H](CCCCN)NC(=O)[C@H](Cc1c[nH]cn1)NC(=O)[C@H](CCCNC(=N)N)NC(C)=O)C(=O)N[C@@H](Cc1c[nH]c2ccccc12)C(N)=O
As to the method:
as §1, §2, §3, §4

Substrate in data set [3]: CC(=O)NCCCC[C@H](NC(=O)[C@H](CCCCN)NC(=O)[C@H](Cc1c[nH]cn1)NC(=O)[C@H](CCCNC(=N)N)NC(C)=O)C(=O)N[C@@H](Cc1ccccc1)C(N)=O
As to the method: as §1, §2, §3, §4

Substrate in data set [4]: CC(=O)NCCCC[C@H](NC(=O)[C@H](CCCCN)NC(=O)[C@H](Cc1c[nH]cn1)NC(=O)[C@H](CCCNC(=N)N)NC(C)=O)C(=O)Nc1ccc2c(C)cc(=O)oc2c1
As to the method:
as §1, §2, §3, §4

Substrate in data set [5]: CC(=O)NCCCC[C@H](NC(=O)[C@H](CCCCN)NC(=O)[C@H](Cc1c[nH]cn1)NC(=O)[C@H](CCCNC(=N)N)NC(C)=O)C(N)=O
As to the method: as §1, §2, §3, §4

Substrate in data set [6]: CCCC[C@H](NC(=O)[C@H](CCCCNC(C)=O)NC(=O)[C@H](CO)NC(=O)[C@H](Cc1c[nH]cn1)NC(=O)[C@H](CO)NC(=O)[C@H](CO)NC(=O)[C@@H](NC(=O)[C@H](CO)NC(=O)[C@H](CCC(N)=O)NC(=O)CNC(=O)[C@H](CCCCNC(=O)CCCC[C@@H]1SC[C@@H]2NC(=O)N[C@@H]21)NC(=O)[C@H](CCC(=O)O)NC(=O)[C@H](CCC(=O)O)NC(C)=O)[C@@H](C)O)C(=O)N[C@@H](CO)C(=O)N[C@H](C(=O)N[C@@H](CCC(=O)O)C(=O)NCC(=O)N[C@@H](CCCCN)C(=O)N[C@@H](CCC(=O)O)C(=O)N[C@@H](CCC(=O)O)C(N)=O)[C@@H](C)O
As to the method:
as §1, §2, §3, §4

B1: SIRT1 (Homo sapiens) (protein)
chain: MADEAALALQPGGSPSAAGADREAASSPAGEPLRKRPRRDGPGLERSPGEPGGAAPEREVPAAARGCPGAAAAALWREAEAEAAAAGGEQEAQATAAAGEGDNGPGLQGPSREPPLADNLYDEDDDDEGEEEEEAAAAAIGYRDNLLFGDEIITNGFHSCESDEEDRASHASSSDWTPRPRIGPYTFVQQHLMIGTDPRTILKDLLPETIPPPELDDMTLWQIVINILSEPPKRKKRKDINTIEDAVKLLQECKKIIVLTGAGVSVSCGIPDFRSRDGIYARLAVDFPDLPDPQAMFDIEYFRKDPRPFFKFAKEIYPGQFQPSLCHKFIALSDKEGKLLRNYTQNIDTLEQVAGIQRIIQCHGSFATASCLICKYKVDCEAVRGDIFNQVVPRCPRCPADEPLAIMKPEIVFFGENLPEQFHRAMKYDKDEVDLLIVIGSSLKVRPVALIPSSIPHEVPQILINREPLPHLHFDVELLGDCDVIINELCHRLGGEYAKLCCNPVKLSEITEKPPRTQKELAYLSELPPTPLHVSEDSSSPERTSPPDSSVIVTLLDQAAKSNDDLDVSESKGCMEEKPQEVQTSRNVESIAEQMENPDLKNVGSSTGEKNERTSVAGTVRKCWPNRVAKEQISRRLDGNQYLFLPPNRYIFHGAEVYSDSEDDVLSSSSCGSNSDSGTCQSPSLEEPMEDESEIEEFYNGLEDEPDVPERAGGAGFGTDGDDQEAINEAISVKQEVTDMNYPSNKS
Broadly, the Km is the concentration of substrate that gives half-maximal velocity. As to B1, the Michaelis-Menten constant (Km) in data set [1] was determined as 13 µM; in data set [2], 4.0 µM; in data set [3], 7.1 µM; in data set [4] it was 110 µM; in data set [5], 23 µM; in data set [6], 33 µM.
